# Experimental data taken from the supplement of paper PMC7125110.
# ± gives the standard error. Fewer inactive variants are shown than the library holds.
# B1: glmS ribozyme (parent)
# chain: AUAAAAGCGCCAGAACUACAGAAAUGUAGUUGACGAGGAGGAGGUUUAUCGAAUUUUCGGCGGAUGCCUCCAAA
# How the values were obtained:
# Settings in all cases: with glucosamine-6-phosphate
# glucosamine-6-phosphate [1] = variants of: B1; experiment: self-cleavage kobs at 40 uM GlcN6P; higher = faster cleavage; RNA array
# Outline: (§1)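 Barcoded ribozyme variants were transcribed in situ on sequenced MiSeq chips by E. coli RNA polymerase. At 37 °C, a hybridised Cy3 probe tracked them while glucosamine-6-phosphate (40 μM to 10 mM) in HEPES/KCl/Mg(OAc)2 buffer flowed in and tiles were imaged over ~14 h. Per-tile medians of signals normalised to baseline and to non-cleaving reference variants were fit to one- or two-exponential decays, giving kobs. kcat and KM came from weighted Michaelis–Menten fits across concentrations.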
# glucosamine-6-phosphate [2] = variants of: B1; experiment: self-cleavage kobs at 2500 uM GlcN6P; higher = faster cleavage; RNA array
# Outline: as §1
# glucosamine-6-phosphate [3] = variants of: B1; experiment: self-cleavage kobs at 10000 uM GlcN6P; higher = faster cleavage; RNA array
# Outline: as §1
# glucosamine-6-phosphate [4] = variants of: B1; experiment: self-cleavage kobs at 640 uM GlcN6P; higher = faster cleavage; RNA array
# Outline: as §1
# glucosamine-6-phosphate [5] = variants of: B1; experiment: self-cleavage kobs at 160 uM GlcN6P; higher = faster cleavage; RNA array
# Outline: as §1
Variant,self-cleavage kobs at 40 uM GlcN6P (glucosamine-6-phosphate [1]) [s⁻¹],self-cleavage kobs at 2500 uM GlcN6P (glucosamine-6-phosphate [2]) [s⁻¹],self-cleavage kobs at 10000 uM GlcN6P (glucosamine-6-phosphate [3]) [s⁻¹],self-cleavage kobs at 640 uM GlcN6P (glucosamine-6-phosphate [4]) [s⁻¹],self-cleavage kobs at 160 uM GlcN6P (glucosamine-6-phosphate [5]) [s⁻¹]
C11U G37U G43U G63U,< 1e-05,< 1e-05,< 1e-05,,
A6C G43C G63A C71A,< 1e-05,,< 1e-05,,
A12U A15U A42G,0.000666 ± 0.00019,0.00849 ± 0.0038,,0.00157 ± 0.00069,
G13U A36G G62U G66U C70A,< 1e-05,,,,
U30G A36U C50G C67U,0.000201 ± 3.9e-05,,0.00055 ± 0.00011,,
G9U U30C A36C,< 1e-05,< 1e-05,,< 1e-05,
A6G A42C C71U,< 1e-05,,,< 1e-05,
G9U G41A,< 1e-05,< 1e-05,< 1e-05,< 1e-05,< 1e-05
G9U G41U,< 1e-05,< 1e-05,< 1e-05,< 1e-05,< 1e-05
C10U A42U,< 1e-05,< 1e-05,< 1e-05,< 1e-05,< 1e-05
A6G A12G U31A U54A C71A,< 1e-05,< 1e-05,,< 1e-05,< 1e-05
A12U A42G U47A C68U,0.000117 ± 4.6e-05,,0.00634 ± 0.0021,,
A33G G44C,< 1e-05,< 1e-05,< 1e-05,< 1e-05,< 1e-05
A6G C16G G29C A39G G43C U47G G51U C61A,< 1e-05,,< 1e-05,,
A14G C71G,0.00028 ± 3.6e-05,,0.00586 ± 0.0014,0.00058 ± 7.9e-05,0.000718 ± 0.00016
G7U A52U,< 1e-05,< 1e-05,< 1e-05,< 1e-05,
A6C G63A,< 1e-05,,,< 1e-05,< 1e-05
G43C A52C U54G,< 1e-05,,< 1e-05,< 1e-05,
U30G A36U G51A,< 1e-05,,,,
A39C G60C C68U,< 1e-05,,,< 1e-05,< 1e-05
C34G A48G C68G,8.52e-05 ± 3.4e-05,,,,
